Broadly, the Kd is a measure of binding affinity in units of concentration. By IC50 is commonly meant the concentration at which inhibition is half-maximal. One may read the EC50 as the concentration needed to bring the measured effect to its halfway point. A low value points to a more potent agent.

The text below walks through data of patent US20140255408A1 (Janssen / Centocor, published 2014).

B1: P54AR4-47 (designed binder)
chain: LPAPKNLVVSEVTEDSLRLSWWDPFSFYDSFLIQYQESEKVGEAINLTVPGSERSYDLTGLKPGTEYTVSIYGVHNVYKDTNMRGLPLSAEFTT
B2: ECB95 (designed binder)
chain: MLPAPKNLVVSEVTEDSARLSWDDPWAFYESFLIQYQESEKVGEAIVLTVPGSERSYDLTGLKPGTEYTVSIYGVHNVYKDTNIRGLPLSAIFTTAPAPAPAPAPLPAPKNLVVSRVTEDSARLSWTAPDAAFDSFWIRYFEFVGSGEAIVLTVPGSERSYDLTGLKPGTEYVVNILGVKGGSISPPLSAIFTT
notes: not shown: C-terminal poly-histidine tag
B3: ECB96 (designed binder)
chain: B2 chain with G145S, S146K, E148D
notes: as for B2
B4: ECB97 (designed binder)
chain: B2 chain with V144L, G178S
notes: as for B2
B5: ECB94 (designed binder)
chain: B2 chain with V144L, S183K
notes: as for B2
B6: ECB15 (designed binder)
chain: B2 chain with I84M, V144L, L177M, S183K
notes: as for B2
B7: P114AR7P95-D3 (designed binder, not shown: small tags and cut ends)
chain: LPAPKNLVVSRVTEDSARLSWTAPDAAFDSFWIRYFEFLGSGEAIVLTVPGSERSYDLTGLKPGTEYVVNIMGVKGGSISYPLSAIFTT
B8: P114AR7P95-F10 (designed binder, not shown: small tags and cut ends)
chain: B7 chain with L39T, G40T, S41A, Y81P
B9: P114AR7P94-E5 (designed binder, not shown: small tags and cut ends)
chain: B7 chain with V68A, S78R, I79V, Y81V
B10: P114AR7P92-F3 (designed binder, not shown: small tags and cut ends)
chain: B7 chain with V68I, Y81H
B11: P114AR7P93-H9 (designed binder, not shown: small tags and cut ends)
chain: B7 chain with N70Q, M72I, S78H, Y81L
B12: P114AR7P93-G8 (designed binder, not shown: small tags and cut ends)
chain: B7 chain with G60D, V68G, N70T, M72N, S78R, I79V, Y81T
B13: P114AR7P94-A3 (designed binder, not shown: small tags and cut ends)
chain: B7 chain with S78K, Y81P
B14: P114AR7P95-B9 (designed binder, not shown: small tags and cut ends)
chain: B7 chain with N70Q, M72L, Y81V
B15: P114AR7P92-F6 (designed binder, not shown: small tags and cut ends)
chain: B7 chain with M72L, S78G, I79L, Y81V
B16: P114AR5P75-E9 (designed binder, not shown: small tags and cut ends)
chain: B7 chain with W32F, F36D, G40R, V68W, N70T, M72L, S78L, I79V, Y81T
B17: P114AR7P92-G8 (designed binder, not shown: small tags and cut ends)
chain: B7 chain with W32V, N70Q, M72L, S78Y, Y81I
B18: P114AR7P92-H5 (designed binder, not shown: small tags and cut ends)
chain: B7 chain with F36L, G40L, S41G, N70Q, S78T, I79V, Y81P
B19: P114AR7P95-H8 (designed binder, not shown: small tags and cut ends)
chain: B7 chain with L39V, G40S, S41K, Y81P
B20: P114AR7P95-D4 (designed binder, not shown: small tags and cut ends)
chain: B7 chain with N70Q, M72L, S78Y, Y81I
B21: P114AR7P95-G7 (designed binder, not shown: small tags and cut ends)
chain: B7 chain with F38L, G40S, S41T, Y81P
B22: P114AR7P93-D11 (designed binder, not shown: small tags and cut ends)
chain: B7 chain with N70G, M72N, S78Y
B23: P114AR7P95-E3 (designed binder, not shown: small tags and cut ends)
chain: B7 chain with N70Q, S78T, I79V, Y81P

Where a chain is given by its changes, count along the chain named.

The target of the first test is T1, human EGFR on cells (human, UniProt P00533 25-1210). The test is described as follows: cell-based or functional assay.
As for B1, the “Phospho-EGFR IC50 (A431 cells)” value is 295 nM.

The target of the next test is T2, human c-Met on cells (human, UniProt P08581 25-1390). Briefly: cell-based or functional assay.
For B2, the “pMet inhibition in H441 cells (IC50)” value is 179 nM.

Regarding B3, the “pMet inhibition in H441 cells (IC50)” value turned out to be 835 nM.

B4: the “pMet inhibition in H441 cells (IC50)” value worked out at 24.2 nM.

As to B5, the “pMet inhibition in H441 cells (IC50)” value was 53.8 nM.

Another test deals with T1, human EGFR on cells. Briefly: cell-based or functional assay. The source holds these as a separate data set.
Take B2: the “H292 pEGFR inhibition in H292 cells (IC50)” value (from here on “H292 pEGFR inhibition”) came to 13.6 nM.

Regarding B3, the “H292 pEGFR inhibition” value turned out to be 24.7 nM.

Turning to B6, the “H292 pEGFR inhibition” value is 4.2 nM.

Consider B4, for which the “H292 pEGFR inhibition” value is 16.6 nM.

Take B5: the “H292 pEGFR inhibition” value was found to be 5.1 nM.

A further test has as its target T3, Recombinant human c-Met Fc chimera (human, UniProt P08581 16-932).
T3 construct: not shown: Fc part
The test is described as follows: SPR (ProteOn), protocol of Example 3, recombinant c-Met extracellular domain.
Turning to B2, the Kd was determined as 6.2 nM.

Consider B3, for which the Kd was found to be 22.1 nM.

On to B6, for which the Kd turned out to be 2.6 nM.

As to B4, the Kd was 1.7 nM.

As to B5, the Kd is 4.3 nM.

The target in the next test is T3, Recombinant human c-Met Fc chimera. The test is described as follows: HGF competition assay on coated c-Met-Fc, competitor biotinylated HGF.
Regarding B7, the IC50 worked out at 0.2 nM.

Consider B8, for which the IC50 worked out at 1.4 nM.

With B9, the IC50 was determined as 0.7 nM.

With B10, the IC50 was 0.2 nM.

As to B11, the half-maximal inhibitory concentration (IC50) worked out at 2.9 nM.

In the case of B12, the concentration for half-maximal inhibition (IC50) amounted to 1 nM.

Regarding B13, the IC50 was found to be 0.2 nM.

On to B14, for which the IC50 stood at 0.3 nM.

B15: the IC50 is 2.2 nM.

In the case of B16, the half-maximal inhibitory concentration (IC50) was determined as 51.9 nM.

For the molecule B17, the IC50 was determined as 1.6 nM.

In the next test the target is T2, human c-Met on cells. The test is described as follows: cell-based or functional assay. The source holds these as a separate data set.
In the case of B7, the “pMet inhibition in H441 cells (IC50)” value came out at 4.6 nM.

Turning to B8, the “Inhibition of Proliferation of U87-MG cells (IC50)” value (“Inhibition … of U87-MG cells (IC50)” below) worked out at 130 nM and the “pMet inhibition in H441 cells (IC50)” value was 188 nM.

As to B18, the “Inhibition … of U87-MG cells (IC50)” value turned out to be 672 nM and the “pMet inhibition in H441 cells (IC50)” value came out at 766 nM.

On to B9, for which the “Inhibition … of U87-MG cells (IC50)” value was 196 nM and the “pMet inhibition in H441 cells (IC50)” value was 124 nM.

Turning to B10, the “Inhibition … of U87-MG cells (IC50)” value amounted to 2.7 nM and the “pMet inhibition in H441 cells (IC50)” value was found to be 8.3 nM.

B11: the “Inhibition … of U87-MG cells (IC50)” value was determined as 270 nM and the “pMet inhibition in H441 cells (IC50)” value came out at 288 nM.

Take B12: the “Inhibition … of U87-MG cells (IC50)” value worked out at 104 nM and the “pMet inhibition in H441 cells (IC50)” value was determined as 460 nM.

As for B19, the “Inhibition … of U87-MG cells (IC50)” value was 281 nM and the “pMet inhibition in H441 cells (IC50)” value turned out to be 210 nM.

In the case of B13, the “Inhibition … of U87-MG cells (IC50)” value came to 9.3 nM and the “pMet inhibition in H441 cells (IC50)” value was found to be 5 nM.

As for B20, the “Inhibition … of U87-MG cells (IC50)” value stood at 19.4 nM and the “pMet inhibition in H441 cells (IC50)” value was found to be 19.5 nM.

With B21, the “Inhibition … of U87-MG cells (IC50)” value was found to be 692 nM and the “pMet inhibition in H441 cells (IC50)” value turned out to be 659 nM.

For the molecule B14, the “Inhibition … of U87-MG cells (IC50)” value turned out to be 17.4 nM and the “pMet inhibition in H441 cells (IC50)” value was found to be 9.8 nM.

Consider B15, for which the “Inhibition … of U87-MG cells (IC50)” value came out at 350 nM and the “pMet inhibition in H441 cells (IC50)” value was determined as 165 nM.

For the molecule B16, the “Inhibition … of U87-MG cells (IC50)” value is 1190 nM and the “pMet inhibition in H441 cells (IC50)” value was 1.42 µM.

As for B17, the “Inhibition … of U87-MG cells (IC50)” value stood at 124 nM and the “pMet inhibition in H441 cells (IC50)” value was determined as 155 nM.

With B22, the “Inhibition … of U87-MG cells (IC50)” value was found to be 14.4 nM and the “pMet inhibition in H441 cells (IC50)” value was 16 nM.

Take B23: the “Inhibition … of U87-MG cells (IC50)” value worked out at 209 nM and the “pMet inhibition in H441 cells (IC50)” value turned out to be 205 nM.

The next test has as its target T4, recombinant human extracellular domain of EGFR fused to an IgG1 Fc (human, UniProt P00533 25-645).
T4 construct: Bought from R&D Systems; The residues are stated for the panning reagent; also called EGFR-Fc; EGF R-Fc; not shown: IgG1 Fc
The test is described as follows: SPR (ProteOn), protocol of Example 3, recombinant EGFR extracellular domain. The method, then:
All 6 analyte channels were used for the FN3 domains to maximize screening throughput. The dissociation phase was monitored for 10 minutes at a flow rate of 100 μL/min. The inter-spot binding signals were used as references to monitor non-specific binding between analytes and the immobilized IgG surface, and were subtracted from all binding responses. The processed binding data were locally fit to a 1:1 simple Langmuir binding model to extract the koff for each FN3 domain binding to captured EGFR-Fc.
Binding affinity of selected EGFR-binding FN3 domains to recombinant EGFR extracellular domain was further characterized by surface Plasmon resonance methods using a Proteon Instrument (BioRad). The assay set-up (chip preparation, EGFR-Fc capture) was similar to that described above for off-rate analysis. Selected EGFR binding FN3 domains were tested at 1 μM concentration in 3-fold dilution series in the horizontal orientation. A buffer sample was also injected to monitor the baseline stability. […] Two sets of reference data were subtracted from the response data: 1) the inter-spot signals to correct for the non-specific interactions between the EGFR-binding FN3 domain and the immobilized IgG surface; 2) the buffer channel signals to correct for baseline drifting due to the dissociation of captured EGFR-Fc surface over time. The processed binding data at all concentrations for each FN3 domain were globally fit to a 1:1 simple Langmuir binding model to extract estimates of the kinetic (kₘ, koff) and affinity (KD) constants.
Consider B2, for which the Kd amounted to 1.1 nM.

Consider B3, for which the Kd is 1.6 nM.

As for B6, the Kd came to 0.2 nM.

For B4, the Kd is 1.3 nM.

Regarding B5, the Kd was 1 nM.

The next test addresses T3, Recombinant human c-Met Fc chimera. The test is described as follows: SPR (ProteOn), c-Met-Fc captured on anti-human Fc IgG, FN3 domain as analyte.
Consider B7, for which the Kd worked out at 0.3 nM.

As for B8, the Kd stood at 4.2 nM.

Turning to B18, the Kd stood at 11.6 nM.

B9: the Kd turned out to be 4.2 nM.

Consider B10, for which the dissociation constant (Kd) worked out at 0.4 nM.

Consider B11, for which the equilibrium dissociation constant (Kd) amounted to 3.3 nM.

For the molecule B12, the Kd is 6.9 nM.

B19: the Kd worked out at 3.7 nM.

With B13, the dissociation constant (Kd) amounted to 0.4 nM.

Turning to B20, the Kd is 0.4 nM.

Consider B21, for which the Kd worked out at 20 nM.

Consider B15, for which the Kd is 3.1 nM.

As for B16, the Kd was found to be 45.8 nM.

B17: the dissociation constant (Kd) came out at 1 nM.

In the next test the target is T2, human c-Met on cells. The test is described as follows: H441 cell binding assay, anti-His detection. Here is the method: Purified FN3 domains (50 μL/well; 0 to 1000 nM) were added to the cells for 1 hour at 4° C. in duplicate plates. […] Cells were incubated with biotinylated-anti HIS antibody (diluted 1:160 in FACS stain buffer, 50 μL/well, R&D Systems, cat #BAM050) for 30 minutes at 4° C. […] Cells were washed three times with FACS stain buffer (150 μL/well) and left in FACS stain buffer (50 μL/well).
Regarding B8, a half-maximal response (EC50) required 4.4 nM.

Molecule B18 showed an EC50 of 22 nM.

In turn, B9 yielded an EC50 of 3.4 nM.

Regarding B11, it took 12.9 nM to reach a half-maximal effect (EC50).

B12 showed an EC50 of 3.8 nM.

Consider B19, for which the concentration giving a half-maximal response (EC50) worked out at 4.1 nM.

As to B13, the midpoint of the response, the EC50, lay at 1.4 nM.

B20 returned an EC50 of 1.4 nM.

B21 came in with an EC50 of 11.3 nM.

Turning to B15, the midpoint of the response, the EC50, lay at 4.9 nM.

For the molecule B17, the response was half-maximal at 5.9 nM (EC50).

In turn, B22 had an EC50 of 2.3 nM.

Molecule B23 registered an EC50 of 3.2 nM.
